According to publication PMC8996344 (Nature immunology, 2021):

T1: GST–regnase-1^D141N (human, UniProt Q5D1E8 1-599, D141N)
T1 sequence (looked up): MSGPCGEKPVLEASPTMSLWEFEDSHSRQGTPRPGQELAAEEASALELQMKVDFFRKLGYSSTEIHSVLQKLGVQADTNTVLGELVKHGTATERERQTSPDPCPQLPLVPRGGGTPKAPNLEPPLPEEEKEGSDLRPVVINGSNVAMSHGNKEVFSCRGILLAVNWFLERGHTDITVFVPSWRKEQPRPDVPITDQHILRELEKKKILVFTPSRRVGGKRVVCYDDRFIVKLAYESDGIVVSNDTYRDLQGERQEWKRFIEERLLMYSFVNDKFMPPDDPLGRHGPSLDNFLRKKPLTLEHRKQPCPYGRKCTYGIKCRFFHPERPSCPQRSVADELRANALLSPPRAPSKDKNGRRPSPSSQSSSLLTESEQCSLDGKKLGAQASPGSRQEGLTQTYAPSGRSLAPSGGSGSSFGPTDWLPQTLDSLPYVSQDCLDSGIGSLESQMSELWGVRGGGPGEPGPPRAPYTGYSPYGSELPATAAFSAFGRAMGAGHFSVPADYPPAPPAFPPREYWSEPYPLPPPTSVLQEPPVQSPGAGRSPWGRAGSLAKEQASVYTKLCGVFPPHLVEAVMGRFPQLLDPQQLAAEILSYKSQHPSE


What follows are binders tested against T1, GST–regnase-1^D141N (assay: pull-down).

Row | fold reduction of binding against SUMO–roquin-1^aa2-440 wild type | Binder
1 | 2 fold | Roquin-1^aa2-440;E212K (domain or fragment, UniProt Q4VGL6 2-440, looked up) PVQAPQWTDFLSCPICTQTFDETIRKPISLGCGHTVCKMCLNKLHRKACPFDQTTINTDIELLPVNSALLQLVGAQIPEQQPITLCSGVEDTKHYEEAKKCVEELALYLKPLSSARGVGLNSTTQSVLSRPMQRKLVTLVHCQLVEEEGRIRAMRAARSLGERTVTELILQHQNPQQLSSNLWAAVRARGCQFLGPAMQEEALKLVLLALKDGSALSRKVLVLFVVQRLEPRFPQASKTSIGHVVQLLYRASCFKVTKRDEDSSLMQLKEEFRTYEALRREHDSQIVQIAMEAGLRIAPDQWSSLLYGDQSHKSHMQSIIDKLQTPASFAQSVQELTIALQRTGDPANLNRLRPHLELLANIDPSPDAPPPTWEQLENGLVAVRTVVHGLVDYIQNHSKKGADQQQPPQHSKYKTYMCRDMKQRGGCPRGASCTFAHSQ
2 | 2 fold | Roquin-1^aa2-440;M199R (domain or fragment, UniProt Q4VGL6 2-440, looked up) PVQAPQWTDFLSCPICTQTFDETIRKPISLGCGHTVCKMCLNKLHRKACPFDQTTINTDIELLPVNSALLQLVGAQIPEQQPITLCSGVEDTKHYEEAKKCVEELALYLKPLSSARGVGLNSTTQSVLSRPMQRKLVTLVHCQLVEEEGRIRAMRAARSLGERTVTELILQHQNPQQLSSNLWAAVRARGCQFLGPARQEEALKLVLLALEDGSALSRKVLVLFVVQRLEPRFPQASKTSIGHVVQLLYRASCFKVTKRDEDSSLMQLKEEFRTYEALRREHDSQIVQIAMEAGLRIAPDQWSSLLYGDQSHKSHMQSIIDKLQTPASFAQSVQELTIALQRTGDPANLNRLRPHLELLANIDPSPDAPPPTWEQLENGLVAVRTVVHGLVDYIQNHSKKGADQQQPPQHSKYKTYMCRDMKQRGGCPRGASCTFAHSQ
3 | 2 fold | Roquin-1^aa2-440;L209Y (domain or fragment, UniProt Q4VGL6 2-440, looked up) PVQAPQWTDFLSCPICTQTFDETIRKPISLGCGHTVCKMCLNKLHRKACPFDQTTINTDIELLPVNSALLQLVGAQIPEQQPITLCSGVEDTKHYEEAKKCVEELALYLKPLSSARGVGLNSTTQSVLSRPMQRKLVTLVHCQLVEEEGRIRAMRAARSLGERTVTELILQHQNPQQLSSNLWAAVRARGCQFLGPAMQEEALKLVLYALEDGSALSRKVLVLFVVQRLEPRFPQASKTSIGHVVQLLYRASCFKVTKRDEDSSLMQLKEEFRTYEALRREHDSQIVQIAMEAGLRIAPDQWSSLLYGDQSHKSHMQSIIDKLQTPASFAQSVQELTIALQRTGDPANLNRLRPHLELLANIDPSPDAPPPTWEQLENGLVAVRTVVHGLVDYIQNHSKKGADQQQPPQHSKYKTYMCRDMKQRGGCPRGASCTFAHSQ
